Experiment [1] has as its target CASV L-Cterm (C-terminal 326 amino acids of the California Academy of Sciences virus L protein, residues 1721-2046) (California Academy of Sciences virus (CASV)) (UniProt J7HBG8). Briefly: SAXS.
For experiment [2] the target is unchanged. Kind of experiment: SEC. On the technique in general: Size exclusion chromatography separates by hydrodynamic size, large species first.
The target of experiment [3] is isolated CASV L-Cterm domain 2 (California Academy of Sciences virus (CASV)). Kind of experiment: SAXS.

Results on two substances are retold here after paper PMC5444859.

In general, stoichiometry N refers to a count of units in the complex or per binding partner. For “CASV L-Cterm (C-terminal 326 amino acids of the California Academy of Sciences virus L protein, residues 1721-2046) (from UniProt J7HBG8 1721-2046) (domain or fragment)”, the stoichiometry N in experiment [1] and in experiment [2] was 2 each time.
In experiment [3], “isolated CASV L-Cterm domain 2 (domain or fragment)” returned a stoichiometry N of 2.
